# Columns and labels:
# HeLa Kyoto [1] = assay: solubility change mitosis vs G1/S (difference of NP-40 vs SDS log2 ratios) (log2 ratio difference); higher = more soluble in mitosis
# HeLa Kyoto [2] = assay: solubility in G1/S (NP-40 vs SDS abundance) (log2 ratio); higher = more soluble; conditions: cell cycle stage: G1/S
# 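Wherever solubility change mitosis vs G1/S (difference of NP-40 vs SDS log2 ratios) is given: synchronized HeLa Kyoto cells (double thymidine block for G1/S, nocodazole release for mitosis), protein amounts in NP-40 versus SDS lysates quantified by mass spectrometry, three biological replicates.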
# 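Wherever solubility in G1/S (NP-40 vs SDS abundance) is given: HeLa Kyoto cells arrested at G1/S by double thymidine block, proteins quantified by TMT10plex mass spectrometry in mild NP-40 versus SDS extracts, three biological replicates.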
Sequence,solubility change mitosis (log2) (HeLa Kyoto [1]),solubility in G1/S (log2) (HeLa Kyoto [2])
MGAQDRPQCHFDIEINREPVGRIMFQLFSDICPKTCKNFLCLCSGEKGLGKTTGKKLCYKGSTFHRVVKNFMIQGGDFSEGNGKGGESIYGGYFKDENFILKHDRAFLLSMANRGKHTNGSQFFITTKPAPHLDGVHVVFGLVISGFEVIEQIENLKTDAASRPYADVRVIDCGVLATKSIKDVFEKKRKKPTHSEGSDSSSNSSSSSESSSESELEHERSRRRKHKRRPKVKRSKKRRKEASSSEEPRNKHAMNPKGHSERSDTNEKRSVDSSAKREKPVVRPEEIPPVPENRFLLRRDMPVVTAEPEPKIPDVAPIVSDQKPSVSKSGRKIKGRGTIRYHTPPRSRSCSESDDDDSSETPPHWKEEMQRLRAYRPPSGEKWSKGDKLSDPCSSRWDERSLSQRSRSWSYNGYYSDLSTARHSGHHKKRRKEKKVKHKKKGKKQKHCRRHKQTKKRRILIPSDIESSKSSTRRMKSSCDRERSSRSSSLSSHHSSKRDWSKSDKDVQSSLTHSSRDSYRSKSHSQSYSRGSSRSRTASKSSSHSRSRSKSRSSSKSGHRKRASKSPRKTASQLSENKPVKTEPLRATMAQNENVVVQPVVAENIPVIPLSDSPPPSRWKPGQKPWKPSYERIQEMKAKTTHLLPIQSTYSLANIKETGSSSSYHKREKNSESDQSTYSKYSDRSSESSPRSRSRSSRSRSYSRSYTRSRSLASSHSRSRSPSSRSHSRNKYSDHSQCSRSSSYTSISSDDGRRAKRRLRSSGKKNSVSHKKHSSSSEKTLHSKYVKGRDRSSCVRKYSESRSSLDYSSDSEQSSVQATQSAQEKEKQGQMERTHNKQEKNRGEEKSKSERECPHSKKRTLKENLSDHLRNGSKPKRKNYAGSKWDSESNSERDVTKNSKNDSHPSSDKEEGEATSDSESEVSEIHIKVKPTTKSSTNTSLPDDNGAWKSSKQRTSTSDSEGSCSNSENNRGKPQKHKHGSKENLKREHTKKVKEKLKGKKDKKHKAPKRKQAFHWQPPLEFGEEEEEEIDDKQVTQESKEKKVSENNETIKDNILKTEKSSEEDLSGKHDTVTVSSDLDQFTKDDSKLSISPTALNTEENVACLQNIQHVEESVPNGVEDVLQTDDNMEICTPDRSSPAKVEETSPLGNARLDTPDINIVLKQDMATEHPQAEVVKQESSMSESKVLGEVGKQDSSSASLASAGESTGKKEVAEKSQINLIDKKWKPLQGVGNLAAPNAATSSAVEVKVLTTVPEMKPQGLRIEIKSKNKVRPGSLFDEVRKTARLNRRPRNQESSSDEQTPSRDDDSQSRSPSRSRSKSETKSRHRTRSVSYSHSRSRSRSSTSSYRSRSYSRSRSRGWYSRGRTRSRSSSYRSYKSHRTSSRSRSRSSSYDPHSRSRSYTYDSYYSRSRSRSRSQRSDSYHRGRSYNRRSRSCRSYGSDSESDRSYSHHRSPSESSRYS [NKTR],0.283,-1.34
MGATGDAEQPRGPSGAERGGLELGDAGAAGQLVLTNPWNIMIKHRQVQRRGRRSQMTTSFTDPAISMDLLRAVLQPSINEEIQTVFNKYMKFFQKAALNVRDNVGEEVDAEQLIQEACRSCLEQAKLLFSDGEKVIPRLTHELPGIKRGRQAEEECAHRGSPLPKKRKGRPPGHILSSDRAAAGMVWKPKSCEPIRREGPKWDPARLNESTTFVLGSRANKALGMGGTRGRIYIKHPHLFKYAADPQDKHWLAEQHHMRATGGKMAYLLIEEDIRDLAASDDYRGCLDLKLEELKSFVLPSWMVEKMRKYMETLRTENEHRAVEAPPQT [DNTTIP1],-0.0131,0.512

# Reference: the supplement of paper PMC5998384
